Experimental data reported in patent publication US20240317847A1 (Bayer, published 2024).
Substitutions are numbered along the chain they refer to. Blank lines part the entries; values can stand above or below the binder they belong to.

Assays:
[1] = biological target: T1, murine IL-11 (mouse, UniProt P47873 22-199); test: SPR 37 C, antibody captured, IL-11 as analyte
T1 construct: Invigate, e.g. lot #C210819-09; biotinylated where coated in the ELISA; also called mIL-11; mIL11
T1 sequence: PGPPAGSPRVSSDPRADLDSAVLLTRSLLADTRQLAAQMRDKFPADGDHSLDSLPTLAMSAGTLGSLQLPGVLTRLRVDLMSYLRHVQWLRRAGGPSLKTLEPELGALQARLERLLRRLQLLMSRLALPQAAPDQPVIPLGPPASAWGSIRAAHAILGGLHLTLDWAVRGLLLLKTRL

[2] = biological target: T2, rat IL-11 (rat, UniProt Q99MF5 22-199); test: SPR 37 C, antibody captured, IL-11 as analyte
T2 construct: Invigate, e.g. lot #C301019-19; also called rIL11
T2 sequence: T1 sequence with S50N, L84F, G94A, V137A, I138V

[3] = biological target: T3, cynomolgus IL-11 (cynomolgus, UniProt P20808 22-199); test: SPR 37 C, antibody captured, IL-11 as analyte
T3 construct: Invigate, lot #C290621-19; also called cIL11; cynoL-11
T3 sequence: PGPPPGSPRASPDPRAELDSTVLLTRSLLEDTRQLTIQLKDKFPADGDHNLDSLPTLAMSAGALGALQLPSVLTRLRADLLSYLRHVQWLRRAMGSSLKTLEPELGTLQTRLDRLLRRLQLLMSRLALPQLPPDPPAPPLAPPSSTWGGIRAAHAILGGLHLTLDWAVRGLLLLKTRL

[4] = biological target: T1, murine IL-11; test: cell-based or functional assay
[5] = biological target: T2, rat IL-11; test: cell-based or functional assay
[6] = biological target: T3, cynomolgus IL-11; test: cell-based or functional assay
[7] = biological target: T4, human IL-11 (human, UniProt P20809 22-199); test: cell-based or functional assay
T4 sequence: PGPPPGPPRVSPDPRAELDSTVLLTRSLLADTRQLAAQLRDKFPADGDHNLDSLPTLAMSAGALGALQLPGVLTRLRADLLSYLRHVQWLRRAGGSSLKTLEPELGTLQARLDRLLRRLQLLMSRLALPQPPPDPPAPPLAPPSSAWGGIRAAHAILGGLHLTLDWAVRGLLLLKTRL

[8] = biological target: T5, human IL-11 (human, UniProt P20809 22-199); test: SPR (Biacore), 25 C, antibody captured via anti-Fc, IL-11 as analyte; SPR at 25 C
T5 construct: Invigate recombinant protein; biotinylated when immobilized in the Di-complex ELISA; also called hIL11; hIL-11
T5 sequence: T4 sequence

[9] = biological target: T6, murine IL-11 (mouse, UniProt P47873 22-199); test: Di-complex ELISA, canine IL11RA-hFc binding to immobilized mIL-11, competition
T6 construct: Invigate recombinant protein; biotinylated when immobilized in the Di-complex ELISA; also called mIL11; mIL-11
T6 sequence: T1 sequence
Method: In the Di-complex ELISA format anti IL-11 antibodies are tested for the ability to interfere with the formation of complexes consisting of immobilized murine IL-11 (Invigate, e.g., lot #C210819-09) or human IL-11 (Invigate, e.g., lot #C121021-19), and murine IL11RA-Fc fusion proteins or canine IL11RA-human-Fc fusion protein (FIG. 17a, b).
Bispecific antibodies were subjected to the experimental assay procedure described in Example 18 and IC50 [M], respectively efficacy (%) were calculated accordingly.

Kd [1]: 0.41 nM
Kd [2]: 0.58 nM
Kd [3]: 5 nM
RGA Efficacy (%) [4]: 93.6%
RGA IC50 [4]: 1.2 nM
RGA Efficacy (%) [5]: 94%
RGA IC50 [5]: 1.8 nM
RGA Efficacy (%) [6]: 70%
RGA IC50 [6]: 4.1 nM
RGA Efficacy (%) [7]: 46.1%
RGA IC50 [7]: 6.5 nM
B1: TPP-18068 (antibody, mouse IgG1)
heavy: EVQLLESGGGLVQPGGSLRLSCAASGFTFSSYGMHWVRQAPGKGLEWVSVISYDGSYKYYADSVKGRFTISRDNSKNTLYLQMNSLRAEDTAVYYCAAGVPDYWGQGTLVTVSSAKTTPPSVYPLAPGSAAQTNSMVTLGCLVKGYFPEPVTVTWNSGSLSSGVHTFPAVLQSDLYTLSSSVTVPSSTWPSETVTCNVAHPASSTKVDKKIVPRDCGCKPCICTVPEVSSVFIFPPKPKDVLTITLTPKVTCVVVDISKDDPEVQFSWFVDDVEVHTAQTQPREEQFNSTFRSVSELPIMHQDWLNGKEFKCRVNSAAFPAPIEKTISKTKGRPKAPQVYTIPPPKEQMAKDKVSLTCMITDFFPEDITVEWQWNGQPAENYKNTQPIMDTDGSYFVYSKLNVQKSNWEAGNTFTCSVLHEGLHNHHTEKSLSHSPGK
light: QSVLTQPPSASGTPGQRVTISCTGSSSNIGAGYDVHWYQQLPGTAPKLLIYSNNERPSGVPDRFSGSKSGTSASLAISGLRSEDEADYYCAAWDDSLNGPVFGGGTKLTVLGQPKSSPSVTLFPPSSEELETNKATLVCTITDFYPGVVTVDWKVDGTPVTQGMETTQPSKQSNNKYMASSYLTLTARAWERHSSYSCQVTHEGHTVEKSLSRADCS
notes: mIgG1, Lambda

Kd [8]: 25 nM
B2: TPP-18068 (antibody, mouse IgG1)
heavy: B1 heavy
light: B1 light
notes: mIgG1, Lambda

IC50 [9]: 3.9 nM
B3: TPP-29603 (bispecific antibody, IgG1)
chain 1: QVQLVESGGGVVQPGRSLRLSCAASGFTFSHYDMHWVRQAPGKGLEWVAVISYHGSVKFYADSVKGRFTISRDNSKNTLYLQMNSLRAEDTAVYYCARTPGFHFDYWGQGTLVTVSSGGGGSGGGGSGGGGSQSVLTQPPSASGTPGQRVTISCSGSSSNIGSNYVSWYQQLPGTAPKLLIYYDDLRPSGVPDRFSGSKSGTSASLAISGLRSEDEADYYCSAWDDSLSGVVFGGGTKLTVLGGGGSGGGGSGGGGSGVECPPCPAPPVAGPSVFIFPPKPKDVLTITLTPKVTCVVVDISKDDPEVQFSWFVDDVEVHTAQTQPREEQFNSTFRSVSELPIMHQDWLNGKEFKCRVNSAAFPAPIEKTISKTKGRPKAPQVYTIPPCKEQMAKDKVSLWCMITDFFPEDITVEWQWNGQPAENYKNTQPIMDTDGSYFVYSKLNVQKSNWEAGNTFTCSVLHEGLHNHHTEKSLSHSPGK
chain 2: EVQLLESGGGLVQPGGSLRLSCAASGFTFSSYGMHWVRQAPGKGLEWVAVISYDGSYKYYADSVKGRFTISRDNSKNTLYLQMNSLRAEDTAVYYCAAGVPDYWGQGTLVTVSSGGGGSGGGGSGGGGSQSVLTQPPSASGTPGQRVTISCSGSSSNIGSDYDVHWYQQLPGTAPKLLIYSNEERPSGVPDRFSGSKSGTSASLAISGLRSEDEADYYCSAWDSSLSGPVFGGGTKLTVLGGGGSGGGGSGGGGSGVECPPCPAPPVAGPSVFIFPPKPKDVLTITLTPKVTCVVVDISKDDPEVQFSWFVDDVEVHTAQTQPREEQFNSTFRSVSELPIMHQDWLNGKEFKCRVNSAAFPAPIEKTISKTKGRPKAPQVCTIPPPKEQMAKDKVSLSCAITDFFPEDITVEWQWNGQPAENYKNTQPIMDTDGSYFVVSKLNVQKSNWEAGNTFTCSVLHEGLHNHHTEKSLSHSPGK
notes: scFv-kih-mIgG1; bispecific comprising CDRs of TPP-29528 and TPP-29519
